First the molecules themselves.
T1: mouse CD177 (mouse, UniProt Q8R2S8 22-796, limits assumed)
T1 sequence (looked up): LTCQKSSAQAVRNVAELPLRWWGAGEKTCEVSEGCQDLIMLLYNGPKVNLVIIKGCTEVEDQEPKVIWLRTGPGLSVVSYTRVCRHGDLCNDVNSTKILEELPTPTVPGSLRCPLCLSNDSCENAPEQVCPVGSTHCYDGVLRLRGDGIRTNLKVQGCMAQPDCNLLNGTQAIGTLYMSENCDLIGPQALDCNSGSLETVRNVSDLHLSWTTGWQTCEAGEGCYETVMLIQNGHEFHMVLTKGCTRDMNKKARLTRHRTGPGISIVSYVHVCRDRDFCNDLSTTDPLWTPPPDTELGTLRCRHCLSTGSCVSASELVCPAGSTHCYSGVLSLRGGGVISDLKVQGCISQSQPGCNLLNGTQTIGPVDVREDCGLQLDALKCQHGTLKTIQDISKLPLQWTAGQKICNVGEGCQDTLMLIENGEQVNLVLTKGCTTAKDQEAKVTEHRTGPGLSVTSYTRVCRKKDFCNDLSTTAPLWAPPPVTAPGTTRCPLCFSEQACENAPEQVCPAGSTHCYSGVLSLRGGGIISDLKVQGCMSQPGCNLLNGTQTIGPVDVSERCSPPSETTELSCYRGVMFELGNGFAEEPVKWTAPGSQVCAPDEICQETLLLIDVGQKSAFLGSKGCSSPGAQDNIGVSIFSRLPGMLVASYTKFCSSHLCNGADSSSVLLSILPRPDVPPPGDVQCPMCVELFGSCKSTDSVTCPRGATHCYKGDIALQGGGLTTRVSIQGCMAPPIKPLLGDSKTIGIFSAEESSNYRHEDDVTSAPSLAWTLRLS

T2: EPHA3 extracellular domain (human, UniProt P29320 21-541)
T2 construct: extracellular domain; ECD construct; also called ephrin type-A receptor 3
T2 sequence (looked up): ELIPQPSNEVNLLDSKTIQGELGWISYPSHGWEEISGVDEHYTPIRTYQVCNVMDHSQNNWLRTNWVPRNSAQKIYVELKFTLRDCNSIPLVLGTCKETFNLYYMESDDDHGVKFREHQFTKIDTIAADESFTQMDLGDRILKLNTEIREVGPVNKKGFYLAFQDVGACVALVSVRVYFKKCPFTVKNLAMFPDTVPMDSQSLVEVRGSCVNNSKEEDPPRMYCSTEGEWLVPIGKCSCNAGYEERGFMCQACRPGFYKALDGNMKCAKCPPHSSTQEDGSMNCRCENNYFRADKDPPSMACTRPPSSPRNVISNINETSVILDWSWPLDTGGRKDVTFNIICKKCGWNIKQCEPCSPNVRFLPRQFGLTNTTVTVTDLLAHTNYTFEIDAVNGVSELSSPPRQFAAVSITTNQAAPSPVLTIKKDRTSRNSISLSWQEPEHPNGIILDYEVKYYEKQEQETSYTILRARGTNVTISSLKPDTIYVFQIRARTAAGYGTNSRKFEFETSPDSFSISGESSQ

T3: CEACAM5 expressed on cells (human, UniProt P06731 35-685)
T3 construct: whole, on cells
T3 sequence (looked up): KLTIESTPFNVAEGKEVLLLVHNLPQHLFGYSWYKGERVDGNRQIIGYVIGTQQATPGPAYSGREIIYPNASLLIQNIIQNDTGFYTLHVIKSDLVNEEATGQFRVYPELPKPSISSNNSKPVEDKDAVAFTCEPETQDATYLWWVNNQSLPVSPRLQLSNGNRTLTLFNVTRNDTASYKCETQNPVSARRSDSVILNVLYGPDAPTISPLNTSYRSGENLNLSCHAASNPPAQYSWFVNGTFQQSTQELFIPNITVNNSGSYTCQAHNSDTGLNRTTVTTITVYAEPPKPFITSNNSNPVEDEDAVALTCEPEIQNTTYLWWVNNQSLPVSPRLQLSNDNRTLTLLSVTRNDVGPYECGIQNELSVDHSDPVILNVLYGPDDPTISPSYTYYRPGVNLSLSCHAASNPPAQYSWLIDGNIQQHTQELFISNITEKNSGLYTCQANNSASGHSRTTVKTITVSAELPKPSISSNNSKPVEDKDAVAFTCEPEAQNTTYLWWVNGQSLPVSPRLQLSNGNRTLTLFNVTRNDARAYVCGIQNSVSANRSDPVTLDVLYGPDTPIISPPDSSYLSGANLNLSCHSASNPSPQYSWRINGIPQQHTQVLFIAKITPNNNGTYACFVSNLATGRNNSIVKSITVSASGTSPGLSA

T4: EPHA3 expressed on cells (human, UniProt P29320 21-983)
T4 construct: whole, on cells; also called ephrin type-A receptor 3
T4 sequence (looked up): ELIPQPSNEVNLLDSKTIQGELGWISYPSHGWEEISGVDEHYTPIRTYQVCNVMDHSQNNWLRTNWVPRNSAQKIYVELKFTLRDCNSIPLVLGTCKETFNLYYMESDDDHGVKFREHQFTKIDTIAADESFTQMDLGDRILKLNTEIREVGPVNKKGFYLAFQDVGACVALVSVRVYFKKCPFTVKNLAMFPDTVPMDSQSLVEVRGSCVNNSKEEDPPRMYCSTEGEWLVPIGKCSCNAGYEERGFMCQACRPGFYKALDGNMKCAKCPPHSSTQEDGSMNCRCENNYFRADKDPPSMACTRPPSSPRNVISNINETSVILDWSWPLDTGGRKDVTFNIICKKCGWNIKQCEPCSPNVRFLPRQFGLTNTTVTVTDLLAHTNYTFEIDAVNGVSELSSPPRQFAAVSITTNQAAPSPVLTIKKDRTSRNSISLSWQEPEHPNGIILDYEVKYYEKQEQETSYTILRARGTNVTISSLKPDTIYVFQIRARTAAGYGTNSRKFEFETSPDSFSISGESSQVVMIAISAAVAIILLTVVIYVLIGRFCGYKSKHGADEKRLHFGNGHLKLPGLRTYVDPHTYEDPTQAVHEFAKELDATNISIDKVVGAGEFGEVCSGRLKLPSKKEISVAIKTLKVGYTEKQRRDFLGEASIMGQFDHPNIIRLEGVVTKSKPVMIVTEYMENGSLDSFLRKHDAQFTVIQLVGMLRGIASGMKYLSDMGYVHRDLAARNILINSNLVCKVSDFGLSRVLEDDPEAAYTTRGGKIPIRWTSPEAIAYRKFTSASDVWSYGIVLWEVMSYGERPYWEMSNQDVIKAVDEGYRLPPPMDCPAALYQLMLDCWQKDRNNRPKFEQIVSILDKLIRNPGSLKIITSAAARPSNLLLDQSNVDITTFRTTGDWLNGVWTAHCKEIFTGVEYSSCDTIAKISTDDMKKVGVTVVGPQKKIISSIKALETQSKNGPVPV

T5: ICAM5 (human, UniProt Q9UMF0)
T5 construct: extracellular domain
T5 sequence (extracellular domain construct of the screen, looked up): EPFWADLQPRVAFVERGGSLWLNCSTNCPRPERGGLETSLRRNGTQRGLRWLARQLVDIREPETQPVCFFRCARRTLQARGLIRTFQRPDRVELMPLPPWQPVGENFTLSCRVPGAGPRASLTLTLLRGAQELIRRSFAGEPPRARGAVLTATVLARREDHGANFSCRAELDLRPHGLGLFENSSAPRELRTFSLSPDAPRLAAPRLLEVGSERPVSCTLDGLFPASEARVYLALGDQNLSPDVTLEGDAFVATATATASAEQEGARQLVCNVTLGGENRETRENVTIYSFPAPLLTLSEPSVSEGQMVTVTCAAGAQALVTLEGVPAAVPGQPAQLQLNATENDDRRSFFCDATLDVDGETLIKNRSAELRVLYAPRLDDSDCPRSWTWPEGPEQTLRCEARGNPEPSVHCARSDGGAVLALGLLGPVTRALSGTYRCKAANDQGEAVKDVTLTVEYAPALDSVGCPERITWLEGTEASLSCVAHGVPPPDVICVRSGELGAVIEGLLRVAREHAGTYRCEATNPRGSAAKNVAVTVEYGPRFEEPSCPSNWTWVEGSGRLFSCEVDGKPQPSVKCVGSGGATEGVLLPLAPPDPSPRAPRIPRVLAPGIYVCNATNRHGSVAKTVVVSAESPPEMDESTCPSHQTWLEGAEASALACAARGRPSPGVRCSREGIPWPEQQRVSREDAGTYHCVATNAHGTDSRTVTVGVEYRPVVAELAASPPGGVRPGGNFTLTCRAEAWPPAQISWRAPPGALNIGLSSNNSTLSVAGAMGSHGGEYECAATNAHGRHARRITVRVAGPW

B1: CEACAM4 extracellular domain (receptor, human, UniProt O75871 36-155, looked up)
chain: FTIEALPSSAAEGKDVLLLACNISETIQAYYWHKGKTAEGSPLIAGYITDIQANIPGAAYSGRETVYPNGSLLFQNITLEDAGSYTLRTINASYDSDQATGQLHVHQNNVPGLPVGAVAG
notes: extracellular domain; ECD construct
B2: mouse PDPN (receptor, UniProt Q62011 23-141, looked up)
chain: GTIGVNEDDIVTPGTGDGMVPPGIEDKITTTGATGGLNESTGKAPLVPTQRERGTKPPLEELSTSATSDHDHREHESTTTVKVVTSHSVDKKTSHPNRDNAGDETQTTDKKDGLPVVTL
B3: CEACAM4 expressed on cells (receptor, human, UniProt O75871 36-244, looked up)
chain: FTIEALPSSAAEGKDVLLLACNISETIQAYYWHKGKTAEGSPLIAGYITDIQANIPGAAYSGRETVYPNGSLLFQNITLEDAGSYTLRTINASYDSDQATGQLHVHQNNVPGLPVGAVAGIVTGVLVGVALVAALVCFLLLSRTGRASIQRDLREQPPPASTPGHGPSHRSTFSAPLPSPRTATPIYEELLYSDANIYCQIDHKADVVS
notes: whole, on cells
B4: PD-L2 extracellular domain (ligand, human, UniProt Q9BQ51 20-220, looked up)
chain: LFTVTVPKELYIIEHGSNVTLECNFDTGSHVNLGAITASLQKVENDTSPHRERATLLEEQLPLGKASFHIPQVQVRDEGQYQCIIIYGVAWDYKYLTLKVKASYRKINTHILKVPETDEVELTCQATGYPLAEVSWPNVSVPANTSHSRTPEGLYQVTSVLRLKPPPGRNFSCVFWNTHVRELTLASIDLQSQMEPRTHPT
notes: extracellular domain; ECD construct; also called PDCD1LG2; programmed cell death 1 ligand 2

In test [1] the target is T6, PD-1 extracellular domain (human, UniProt Q15116 25-170).
T6 construct: extracellular domain; ECD construct; also called PDCD1; programmed cell death 1
T6 sequence (Q15116 25-170): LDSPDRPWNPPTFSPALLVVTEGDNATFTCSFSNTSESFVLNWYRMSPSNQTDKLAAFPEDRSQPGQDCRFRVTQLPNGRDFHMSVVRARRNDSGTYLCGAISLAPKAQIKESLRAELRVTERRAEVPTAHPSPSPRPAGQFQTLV
Briefly: SPR, CEACAM4 ECD-Fc immobilized, ECD-Fc analytes at 250 nM. From the text:
(§1) An irrelevant Fc-tagged protein was used as a control. Sensorgram shown is representative of at least 3 independent runs.
Background: SPR reads the build-up and loss of mass on a sensor chip optically.

For test [2], the target named is T7, PD-L1 extracellular domain (human, UniProt Q9NZQ7 19-238).
T7 construct: extracellular domain; ECD construct; also called CD274; programmed cell death 1 ligand 1
T7 sequence (Q9NZQ7 19-238): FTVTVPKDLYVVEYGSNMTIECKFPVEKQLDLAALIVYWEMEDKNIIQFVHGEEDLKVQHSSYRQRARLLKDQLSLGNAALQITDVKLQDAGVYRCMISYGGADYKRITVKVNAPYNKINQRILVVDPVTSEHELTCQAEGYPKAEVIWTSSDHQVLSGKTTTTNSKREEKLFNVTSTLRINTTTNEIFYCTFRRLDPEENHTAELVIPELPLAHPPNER
Described as above.
Excerpt: as §1

The target of test [3] is B4. Description: SPR, calculated in equilibrium; PD-L2 immobilized, His-tagged CEACAM4 ECD as analyte (FIG. 10E).
The next test concerns the target T1, mouse CD177. Description: SPR.
Test [4] deals with T7, PD-L1 extracellular domain. Description: cell surface interaction assay: PD-L1 ECD tetramer on transfected cells (FIG. 4F).
Test [5] concerns the target T2, EPHA3 extracellular domain. Briefly: SPR, EPHA3 ECD-Fc immobilized, ECD-Fc analytes at 250 nM.
Excerpt: as §1

Test [6] addresses B3. Description: cell surface interaction assay: PD-L2 ECD tetramer on transfected cells (FIG. 4F).
Test [7] concerns the target T3, CEACAM5 expressed on cells. The description is as above.
The next test deals with T8, PD-L1 expressed on cells (human, UniProt Q9NZQ7 19-290).
T8 construct: whole, on cells; also called CD274
T8 sequence (Q9NZQ7 19-290): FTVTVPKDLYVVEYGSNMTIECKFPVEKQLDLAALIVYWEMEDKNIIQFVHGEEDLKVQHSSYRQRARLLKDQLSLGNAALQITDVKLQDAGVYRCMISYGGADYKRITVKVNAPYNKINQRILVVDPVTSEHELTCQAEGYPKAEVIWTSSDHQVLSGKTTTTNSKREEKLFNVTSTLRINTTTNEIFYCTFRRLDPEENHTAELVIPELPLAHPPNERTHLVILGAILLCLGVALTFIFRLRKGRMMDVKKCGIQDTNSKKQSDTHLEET
The description is as above.

The next test concerns the target T4, EPHA3 expressed on cells. The test is described as above.
The target of another test is T5, ICAM5. Briefly: extracellular interaction screen, normalized intensity; labelled dot against the clone named on the axis; which is query and which prey is not given; colour of the predicted class lost.

In general, Kd refers to the constant that tells how readily two partners part at equilibrium. As to B1, the binding result in [1] and in test [2] was “no binding (tested: 250 nM)” each time. Also, in [3], the Kd was 84 nM.

As for B2, the binding result in the test with mouse CD177 was “no binding”.

For B3, the binding result in test [4] is “no binding”.

With B4, the binding result is reported as “no binding (tested: 250 nM)” in test [5]; “binds” in test [6]; “no binding” in test [7]; “binds” with PD-L1 expressed on cells; “no binding” in the test with EPHA3 expressed on cells; “binds” in the test with ICAM5.

The values are drawn from patent US20220119490A1 (Genentech, published 2022).
